The target in experiment [1] is LiRAD51^ATPase (Leishmania infantum RAD51 ATPase domain, residues 134–386) (Leishmania infantum). The experiment is described as follows: ITC; LiBRC1 peptide in the syringe, LiRAD51^ATPase in the cell; 25°C; 20 mM Tris pH 8.0, 150 mM NaCl, 100 mM Li2SO4; single-site binding model. A general note: In ITC the heat of successive injections is recorded.
For experiment [2] the target is unchanged. Briefly: fluorescence polarisation; competition: 5 nM Fluor-NCys-LiBRC1 probe with 500 nM LiRAD51^ATPase, GB1-LiBRC repeats in serial dilutions; KD estimated from the fitted IC50; 50 mM Tris pH 8.0, 150 mM NaCl, 100 mM Li2SO4, 1% BSA, 0.1% Tween-20.
In experiment [3] the target is Fluor-NCys-LiBRC1 probe (Leishmania infantum). Briefly: fluorescence polarisation; direct titration: LiRAD51^ATPase in two-fold serial dilutions into 5 nM Fluor-NCys-LiBRC1 probe; 50 mM Tris pH 8.0, 150 mM NaCl, 100 mM Li2SO4, 1% BSA, 0.1% Tween-20. (In general: Polarisation of emitted light reports the rotation of a fluorescent probe.)

Broadly, the Kd is a measure of binding affinity in units of concentration. As to LiBRC1 free peptide, the equilibrium dissociation constant (Kd) in experiment [1] was determined as 0.65 µM. Regarding “LiBRC2.1 (LiBRC2 Gly154 to alanine, GB1 fusion) (domain or fragment)”, the dissociation constant (Kd) in experiment [2] was 10.6 µM.

On to “GB1-LiBRC1-His8 (BRC repeat 1 of Leishmania infantum BRCA2 fused to GB1) (domain or fragment)”, for which, in experiment [2], the dissociation constant Kd was 0.29 µM. On to “LiBRC1.7 (C-terminal truncation of LiBRC1, residues up to Arg134 removed, GB1 fusion) (domain or fragment)”, for which the equilibrium dissociation constant (Kd) in experiment [2] was 0.39 µM. As to “LiBRC1.8 (C-terminal truncation of LiBRC1, Glu133 also removed, GB1 fusion) (domain or fragment)”, in experiment [2], the Kd is 2.09 µM.

Substance “LiRAD51^ATPase (Leishmania infantum RAD51 ATPase domain, residues 134–386) (domain or fragment)” returned an equilibrium dissociation constant (Kd) in experiment [3] of 0.165 µM. Turning to “LiBRC1.11 (C-terminal truncation of LiBRC1 up until Gln129, GB1 fusion) (domain or fragment)”, the equilibrium dissociation constant (Kd) in experiment [2] is 8.7 µM. On to “LiBRC1.10 (C-terminal truncation of LiBRC1, Val131 also removed, GB1 fusion) (domain or fragment)”, for which, in experiment [2], the dissociation constant (Kd) was 10.1 µM.

(Values after paper PMC9162458.)
